Read-outs that look alike come from different tables or passages of the source.
Legend:
[1] = biological target: T1, mouse CD137 fused with human FC fragment (mouse, UniProt P20334 24-178, limits assumed); assay: ELISA, Fab captured by anti-human IgG (Fab specific), CD137-Fc added, anti-human Fc-HRP
T1 construct: also called mouse CD137-Fc; not shown: human Fc fragment
T1 sequence: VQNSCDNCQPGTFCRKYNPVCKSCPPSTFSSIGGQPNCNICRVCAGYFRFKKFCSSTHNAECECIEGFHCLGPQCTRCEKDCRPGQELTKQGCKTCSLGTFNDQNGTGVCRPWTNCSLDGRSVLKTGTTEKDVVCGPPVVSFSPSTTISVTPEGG

[2] = biological target: T2, CD137-hisFc fusion protein (Sino Biological Cat 10041-H03H) (human, UniProt Q07011 24-186); assay: BLI Octet, Fab
T2 construct: Bought; also called recombinant human CD137 (fused with human Fc and His tag); not shown: His tag and human Fc

[3] = biological target: T2, CD137-hisFc fusion protein (Sino …); assay: BLI Octet, Fab; remark: listed apart in the source

B1: Fab 5351 (Fab, V domains shown)
VH: EVQLVESGGGLVQPGGSLRLSCAASGYSITSGHYWAWIRQAPGKGLEWVSSISGYGSTTYYADSVKGRFTISRDNSKNTLYLQLNSLRAEDTAVYYCARGGSDAVLGDWFAYWGQGTLVTVSS
VL: DIQLTQSPSSLSASVGDRVTITCRASQGIGSFLAWYQQKPGKAPKLLIYDASNLETGVPSRFSGSGSGTDFTLTISSLQPEDFATYYCQQGYYLWTFGQGTKVEIKR
notes: Fab from E. coli; also called VH25/VL25
- binding result [1]: no binding
- Kd [2]: 7.3 nM
- koff [2]: 0.0034 s⁻¹
- kon [2]: 470000 M⁻¹ s⁻¹
- Kd [3]: 7.29 nM
- koff [3]: 0.0034 s⁻¹
- kon [3]: 466000 M⁻¹ s⁻¹
